These results are taken from doi:10.1101/2024.06.06.597711.

In data set [1] the target is T1, CtTrl1-LIG WT (tRNA ligase LIG domain) (Chaetomium thermophilum (syn. …, UniProt G0S6G2 1-414)).
T1 sequence: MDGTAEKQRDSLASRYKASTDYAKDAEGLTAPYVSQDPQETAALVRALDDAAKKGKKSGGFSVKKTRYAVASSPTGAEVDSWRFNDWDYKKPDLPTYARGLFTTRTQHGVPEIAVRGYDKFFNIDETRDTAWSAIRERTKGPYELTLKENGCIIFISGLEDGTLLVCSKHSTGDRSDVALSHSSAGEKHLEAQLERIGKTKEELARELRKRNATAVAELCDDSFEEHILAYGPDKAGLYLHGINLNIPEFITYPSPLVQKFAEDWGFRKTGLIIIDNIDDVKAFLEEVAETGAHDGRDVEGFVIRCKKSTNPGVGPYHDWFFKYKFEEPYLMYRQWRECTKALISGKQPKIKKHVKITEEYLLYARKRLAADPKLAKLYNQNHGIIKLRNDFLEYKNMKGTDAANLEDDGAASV
Description: EMSA. In general terms: In EMSA bound probe runs differently from free probe, usually more slowly.

In a further data set the target is T2, CtTrl1-LIG K148N (Chaetomium thermophilum (syn. …, UniProt G0S6G2 1-414, K148N)).
T2 sequence: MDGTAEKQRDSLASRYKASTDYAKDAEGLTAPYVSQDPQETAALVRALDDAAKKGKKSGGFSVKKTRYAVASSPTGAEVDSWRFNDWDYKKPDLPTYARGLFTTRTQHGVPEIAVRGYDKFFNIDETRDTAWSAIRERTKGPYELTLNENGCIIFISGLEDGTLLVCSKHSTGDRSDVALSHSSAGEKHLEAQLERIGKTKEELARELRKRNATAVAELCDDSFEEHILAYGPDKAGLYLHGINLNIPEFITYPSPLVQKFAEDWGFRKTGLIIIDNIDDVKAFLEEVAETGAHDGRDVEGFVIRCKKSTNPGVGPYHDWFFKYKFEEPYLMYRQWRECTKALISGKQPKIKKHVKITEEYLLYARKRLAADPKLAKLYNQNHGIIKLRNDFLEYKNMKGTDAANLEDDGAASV
Description: EMSA.

In data set [2] the target is T1, CtTrl1-LIG WT (tRNA ligase LIG domain). Description: X-ray crystallography.

B1: ASL-4U (structured_RNA)
RNA: AUCUGGAUUUUGCCAGACUGAAG
modifications: 5'-phosphate; terminal phosphate at 3' end (ordered as [Phos]; 2'-P form in the EMSA not stated)
Regarding B1, the binding result (in data set [1]; in the data set with CtTrl1-LIG K148N) was “binds” each time.

B2: sctRNAPhe-3'exon-7nt (dsRNA)
RNA 1: AUCUGGA
RNA 2: AUCUGGA
modifications: 5'-phosphate; one strand 5'-adenylylated (AppRNA) in the crystal
Take B2: in data set [2], the binding result is on record as “binds”.
